We go through one molecule from US20230183336A1 (MODMAB THERAPEUTICS, published 2023).

Usually IC50 stands for the concentration that gives 50% inhibition.

The target of the experiment is T1, recombinant human LRP6-Fc chimera (human, UniProt O75581 20-1370).
T1 construct: extracellular domain; also called ECD of human LRP6; not shown: Fc part of the chimera
T1 sequence (looked up): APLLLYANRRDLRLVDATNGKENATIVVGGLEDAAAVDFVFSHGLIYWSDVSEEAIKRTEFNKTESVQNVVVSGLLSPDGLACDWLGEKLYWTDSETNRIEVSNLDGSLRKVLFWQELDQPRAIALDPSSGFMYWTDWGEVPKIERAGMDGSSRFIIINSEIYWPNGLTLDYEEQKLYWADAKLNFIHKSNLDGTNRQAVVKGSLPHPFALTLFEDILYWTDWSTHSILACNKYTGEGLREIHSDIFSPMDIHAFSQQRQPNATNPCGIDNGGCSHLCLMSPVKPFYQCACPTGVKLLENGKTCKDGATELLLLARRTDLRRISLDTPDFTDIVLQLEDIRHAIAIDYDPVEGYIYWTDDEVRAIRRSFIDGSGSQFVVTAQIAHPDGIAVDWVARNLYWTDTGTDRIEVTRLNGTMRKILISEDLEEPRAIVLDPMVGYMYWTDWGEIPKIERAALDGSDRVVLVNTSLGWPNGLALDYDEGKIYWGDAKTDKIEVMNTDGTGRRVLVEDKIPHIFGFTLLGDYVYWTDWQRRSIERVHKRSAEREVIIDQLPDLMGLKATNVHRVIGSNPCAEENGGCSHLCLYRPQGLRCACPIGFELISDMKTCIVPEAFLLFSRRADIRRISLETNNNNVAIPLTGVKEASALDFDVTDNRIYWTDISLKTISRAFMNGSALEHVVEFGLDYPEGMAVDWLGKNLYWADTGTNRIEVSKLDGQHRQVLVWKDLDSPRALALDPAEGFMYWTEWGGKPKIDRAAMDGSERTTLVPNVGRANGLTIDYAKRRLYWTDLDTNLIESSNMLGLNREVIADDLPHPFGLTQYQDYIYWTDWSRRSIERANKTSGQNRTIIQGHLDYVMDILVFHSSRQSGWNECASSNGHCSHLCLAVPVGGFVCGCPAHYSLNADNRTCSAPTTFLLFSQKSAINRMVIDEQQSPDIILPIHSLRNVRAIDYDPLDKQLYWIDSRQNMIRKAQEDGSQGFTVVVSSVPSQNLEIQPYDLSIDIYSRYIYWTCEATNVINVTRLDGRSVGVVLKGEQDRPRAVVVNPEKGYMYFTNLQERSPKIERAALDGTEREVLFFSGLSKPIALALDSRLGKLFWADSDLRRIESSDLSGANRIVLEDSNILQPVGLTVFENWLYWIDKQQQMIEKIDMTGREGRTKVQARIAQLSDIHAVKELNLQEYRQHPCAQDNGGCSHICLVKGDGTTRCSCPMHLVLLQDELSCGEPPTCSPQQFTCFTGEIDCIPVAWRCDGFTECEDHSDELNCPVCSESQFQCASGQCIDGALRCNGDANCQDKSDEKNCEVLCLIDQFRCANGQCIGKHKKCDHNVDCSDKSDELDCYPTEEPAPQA
The experiment can be described thus: multipoint competitive ELISA, IgG1; varied competitor printed as recombinant human LRP6-Fc chimera, while paragraph 283 says 'the recombinant antigen'. The source says:
The full length IgG1s and the antibody fragments (Fabs) were purified and a single-point ELISA was done to determine the specificity of the antibodies. […] A multipoint competitive ELISA was used to determine the relative affinities of the antibodies to the recombinant antigen.
Table 3 reports the IC50 of LRP5 antibodies as determined by competitive ELISA. The log of the recombinant human LRP6-Fc chimera concentration (x-axis) was plotted against the OD450 reading of the antibody (y-axis). The IC50 was determined by non-linear regression analysis.

B1: LRP5-H5 (antibody, V domains shown)
VH: EVQLVESGGGLVQPGGSLRLSCAASGFNLSYSSIHWVRQAPGKGLEWVASISSSYGSTSYADSVKGRFTISADTSKNTAYLQMNSLRAEDTAVYYCARGYWAIDYWGQGTLVTVSS
VL: DIQMTQSPSSLSASVGDRVTITCRASQSVSSAVAWYQQKPGKAPKLLIYSASSLYSGVPSRFSGSRSGTDFTLTISSLQPEDFATYYCQQPVGHYGYPITFGQGTKVEIKR
notes: Fab-phage in the screen
Take B1: the 50% inhibitory concentration (IC50) worked out at 4.44 nM.
